Where two headings read alike, the source gives them in different places.
Legend:
[1] = biological target: T1, GLP2 G-protein coupled receptor (Homo sapiens, UniProt O95838); test: GLP2R calcium flux potency assay (GPCR Profiler, in vitro receptor binding); type: cell-based; settings: calcium flux GLP2R cell assay
T1 construct: host or cells: Chem-11 cell
T1 sequence (O95838 1-553): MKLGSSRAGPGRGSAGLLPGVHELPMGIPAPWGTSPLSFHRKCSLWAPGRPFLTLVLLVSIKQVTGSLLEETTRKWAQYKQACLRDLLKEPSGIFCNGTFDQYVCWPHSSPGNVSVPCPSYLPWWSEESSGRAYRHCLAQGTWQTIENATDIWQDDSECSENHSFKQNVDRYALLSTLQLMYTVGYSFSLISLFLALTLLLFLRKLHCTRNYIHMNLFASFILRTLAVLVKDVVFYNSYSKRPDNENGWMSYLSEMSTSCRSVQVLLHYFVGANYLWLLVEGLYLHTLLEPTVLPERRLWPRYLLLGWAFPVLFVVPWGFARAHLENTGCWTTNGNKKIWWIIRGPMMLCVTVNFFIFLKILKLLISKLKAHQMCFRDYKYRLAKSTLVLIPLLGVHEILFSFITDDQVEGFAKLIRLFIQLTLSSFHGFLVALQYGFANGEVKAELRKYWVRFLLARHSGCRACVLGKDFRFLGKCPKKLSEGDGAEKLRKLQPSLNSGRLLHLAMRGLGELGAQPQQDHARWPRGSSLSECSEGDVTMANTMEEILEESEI
Method: A receptor binding assay was performed using a GPCR Profiler assay (Millipore) to assess GLP2-2G-XTEN preparations (including AP690). The assay employed a transfected GLP2R cell line (Millipore, Cat #HTS164C) consisting of a Chem-11 human cell stably transfected with the GLP2 G-protein coupled receptor and a G alpha protein that stimulates calcium flux upon agonism of the GLP2 receptor.

[2] = rat, in vivo
Method: The fusion protein GLP2-2G-XTEN_AE864 was evaluated for its pharmacokinetic properties in Wistar rats following SC administration of two different dosage levels. Prior to the experiment, catheters were surgically implanted into the jugular vein of female Wistar rats. The catheterized animals were randomized into two groups containing three rats each. The fusion protein GLP2-2G-XTEN (lot AP510) was administered to each rat via SC injection as follows: 1) Low Dose 2 mg/kg (25 nmol/kg); or 2) High Dose 16 mg/kg (200 nmol/kg). Blood samples (˜0.2 mL) were collected through the jugular vein catheter from each rat into prechilled heparinized tubes at pre-dose, 0.08, 4, 8, 24, 48, 72, 96, 120 and 168 hours after test compound administration (10 time points). Blood was processed into plasma by centrifugation, split into two aliquots for analysis by ELISA. The samples were analyzed for fusion protein concentration, performed by both anti-XTEN/anti-XTEN sandwich ELISA (AS1602) and anti-GLP2/anti-XTEN sandwich ELISA (AS1705) and the results were analyzed using WinNonLin to obtain the PK parameters. Terminal half life was fit from 48 to 168 hours.

[3] = cynomolgus monkey, in vivo
Method: The fusion protein GLP2-2G-XTEN_AE864 was evaluated for its pharmacokinetic properties in male cynomolgus monkeys following either subcutaneous or intravenous administration of the fusion protein at a single dosage level. Three male cynomolgus monkeys were injected IV and 3 male cynomolgus monkeys were injected SC with 2 mg/kg (25 nmol/kg) GLP2-2G-XTEN at time 0. Blood samples were collected from each monkey into prechilled heparinized tubes at pre-dose and at approximately 0.083 h (5 min), 1, 2, 4, 8, 24, 48, 72, 96, 120, 168, 216, 264, and 336 hours after administration of the fusion protein for the first phase of the study. Animals were allowed to “wash-out” for a 6 week period (4 weeks post-last collection time point of Phase 1), the groups were crossed over (SC to IV and IV to SC), and dosed again with the same dose of GLP2-2G-XTEN fusion protein. Blood samples were collected at pre-dose and at approximately 0.083 h (5 min), 1, 2, 4, 8, 24, 48, 72, 96, 120, 168, 216, 264, 336, 384, 432, and 504 hours post-dose in the second phase of the study. All blood samples were processed into plasma by centrifugation and split into two aliquots for analysis by ELISA. The samples were analyzed for fusion protein concentration, performed by anti-GLP2/anti-XTEN ELISA (AS1705) and the results were analyzed using WinNonLin to obtain the PK parameters.

[4] = system: DSS-induced intestinal colitis in C57Bl/6 mice; test: Murine acute DSS-induced colitis model; type: in vivo, mouse
Method: To determine the efficacy of GLP2-XTEN, the GLP2-2G-XTEN-AE864 fusion protein was evaluated in a mouse model of intestinal inflammatory colitis. […] A naïve, non-treated control group (group 1) was given normal drinking water for the duration of the experiment. […] Tissues were fixed in formalin and then transferred to ethanol for staining and histopathology. The anatomical data was analyzed with an ANOVA model with a Tukey/Kramer post-hoc test for pairwise comparisons, with significance at p=0.05.

[5] = Analytical size exclusion HPLC of GLP2-2G-XTEN (apparent molecular weight); type: physicochemical
Method: Gel filtration analysis was performed using a Phenomenex BioSep-SEC-s4000 (7.8 mm×600 mm) column. 20 μg or AP690 GLP2-2G-XTEN fusion protein were analyzed at a flowrate of 0.5 ml/min with 50 mM Phosphate pH 6.5, 300 mM NaCl mobile phase. Elution was monitored using OD215 nm. Column calibration was performed using a size exclusion check standard from Phenomenex, with the following markers: thyroglobulin (670 kDa), IgG (156 kDa), BSA (66 kDa) and ovalbumin ([…]). The result (FIG. 11B) indicated an apparent molecular weight of 1002 kDa for the fusion protein of 83.1 kDa actual weight, for an apparent molecular weight factor of […].

B1: GLP2-2G-XTEN_AE864: fusion protein of GLP-2 with glycine at position 2 linked at the C-terminus to XTEN AE864; sequence of FIG. 28 (SEQ ID NO: 798) (protein)
chain: HGDGSFSDEMNTILDNLAARDFINWLIQTKITDGGSPAGSPTSTEEGTSESATPESGPGTSTEPSEGSAPGSPAGSPTSTEEGTSTEPSEGSAPGTSTEPSEGSAPGTSESATPESGPGSEPATSGSETPGSEPATSGSETPGSPAGSPTSTEEGTSESATPESGPGTSTEPSEGSAPGTSTEPSEGSAPGSPAGSPTSTEEGTSTEPSEGSAPGTSTEPSEGSAPGTSESATPESGPGTSTEPSEGSAPGTSESATPESGPGSEPATSGSETPGTSTEPSEGSAPGTSTEPSEGSAPGTSESATPESGPGTSESATPESGPGSPAGSPTSTEEGTSESATPESGPGSEPATSGSETPGTSESATPESGPGTSTEPSEGSAPGTSTEPSEGSAPGTSTEPSEGSAPGTSTEPSEGSAPGTSTEPSEGSAPGTSTEPSEGSAPGSPAGSPTSTEEGTSTEPSEGSAPGTSESATPESGPGSEPATSGSETPGTSESATPESGPGSEPATSGSETPGTSESATPESGPGTSTEPSEGSAPGTSESATPESGPGSPAGSPTSTEEGSPAGSPTSTEEGSPAGSPTSTEEGTSESATPESGPGTSTEPSEGSAPGTSESATPESGPGSEPATSGSETPGTSESATPESGPGSEPATSGSETPGTSESATPESGPGTSTEPSEGSAPGSPAGSPTSTEEGTSESATPESGPGSEPATSGSETPGTSESATPESGPGSPAGSPTSTEEGSPAGSPTSTEEGTSTEPSEGSAPGTSESATPESGPGTSESATPESGPGTSESATPESGPGSEPATSGSETPGSEPATSGSETPGSPAGSPTSTEEGTSTEPSEGSAPGTSTEPSEGSAPGSEPATSGSETPGTSESATPESGPGTSTEPSEGSAPG
With B1 the “potency compared to GLP2-2G” value [1] was “about 2%”, the Cl [2] was 0.80 mL/h and the “T ½” value [2] was 43.6 h. For the same molecule, the Vd [2] was 0.21 L/kg, the terminal half-life ([2]; sc) was 37.5 to 49.7 h and the AUCInf ([2]; sc, 2 mg/kg) was 530 µg·h/mL. For the same molecule, the Vz ([2]; sc, 2 mg/kg) was 43.4 mL, the Cl [3] was 1.6 mL/h and the “T ½” value [3] was 125 h. For the same molecule, the Vd [3] was 0.098 L/kg, the AUCInf ([3]; iv, 2 mg/kg) was 3,700,000 hr * ng/mL and the Cl ([3]; iv, 2 mg/kg) was 1.9 mL/h. For the same molecule, the T ½ ([3]; iv, 2 mg/kg) was 110.0 h, the Vd ([3]; iv, 2 mg/kg) was 0.09 L/kg and the AUCInf ([3]; sc, 2 mg/kg) was 3,400,000 hr * ng/mL. For the same molecule, the T ½ ([3]; sc, 2 mg/kg) was 120.0 h, the Vd ([3]; sc, 2 mg/kg) was 0.11 L/kg and the “histopathology of small intestine” value ([4]; DSS-treated mice, 6 mg/kg qd) was “normal mucosal architecture with elongated villi densely populated with columnar epithelial and goblet cells”. The “loss of body weight” value ([4]; DSS-treated mice, SC days 1-10, peptide BID, fusion protein QD, any dose) was “neither the mice treated with GLP2-2G peptide nor any of the groups of mice treated with any dose of GLP2-2G-XTEN mice showed a reduced loss of body weight”, the “protection of the intestines from inflammatory effects of DSS” value ([4]; conclusion of the experiment) was “protected the intestines from the inflammatory effects of DSS, with maintenance of normal villi and mucosal architecture” and the small intestine weight ([4]; high dose group (6 mg/kg), compared to control groups 1 and 2, day 10) was “increase in small intestine weight”. The small intestine weight ([4]; medium dose group (2 mg/kg), compared to group 1, day 10) was “increase in small intestine weight”, the apparent molecular weight ([5]; SEC, BioSep-SEC-s4000, 50 mM Phosphate pH 6.5, 300 mM NaCl, lot AP690) was 1002 kDa and the “apparent molecular weight factor” value ([5]; apparent vs 83.1 kDa actual weight) was 12.5.

— patent US20250388643A1, “GLUCAGON-LIKE PEPTIDE-2 COMPOSITIONS AND METHODS OF MAKING AND USING SAME” (Amunix Pharmaceuticals, Inc., priority 2011, published 2025)
